# Assay results as given in article PMC12830966.
# B1: DNA-S (dsDNA)
# DNA 1: AGTTGGCAAGTC
# DNA 2: GACTTGCCAACT
# Molecular target: NFIA full-length (human, UniProt Q12857 1-509)
# Test: BLI
# Sequence of NFIA full-length (Q12857 whole entry): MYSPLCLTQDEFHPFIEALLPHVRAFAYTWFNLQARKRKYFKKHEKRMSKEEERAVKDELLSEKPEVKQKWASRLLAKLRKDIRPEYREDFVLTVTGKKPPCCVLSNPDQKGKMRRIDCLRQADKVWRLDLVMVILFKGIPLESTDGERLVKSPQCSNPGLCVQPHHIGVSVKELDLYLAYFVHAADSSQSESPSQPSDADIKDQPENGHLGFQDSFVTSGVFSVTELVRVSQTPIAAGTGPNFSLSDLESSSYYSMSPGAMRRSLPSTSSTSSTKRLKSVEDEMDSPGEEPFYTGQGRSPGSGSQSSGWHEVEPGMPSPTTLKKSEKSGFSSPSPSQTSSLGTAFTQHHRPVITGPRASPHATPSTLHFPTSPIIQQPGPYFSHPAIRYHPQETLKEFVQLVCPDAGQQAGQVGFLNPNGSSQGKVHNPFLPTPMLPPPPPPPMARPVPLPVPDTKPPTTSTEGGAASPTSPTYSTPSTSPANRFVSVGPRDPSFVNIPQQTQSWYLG
binder,measurement,value
B1,Kd,20.4 nM
